Measurements from patent US20100184709.

Target: T1, Ac-LRSR-amc
T1 chain: LRSR

B1: recombinant purified GST-Malt1 protein, oligomerized by binding to glutathione sepharose (protein)
chain: MSLLGDPLQALPPSAAPTGPLLAPPAGATLNRLREPLLRRLSELLDQAPEGRGWRRLAELAGSRGRLRLSCLDLEQCSLKVLEPEGSPSLCLLKLMGEKGCTVTELSDFLQAMEHTEVLQLLSPPGIKITVNPESKAVLAGQFVKLCCRATGHPFVQYQWFKMNKEIPNGNTSELIFNAVHVKDAGFYVCRVNNNFTFEFSQWSQLDVCDIPESFQRSVDGVSESKLQICVEPTSQKLMPGSTLVLQCVAVGSPIPHYQWFKNELPLTHETKKLYMVPYVDLEHQGTYWCHVYNDRDSQDSKKVEIIIGRTDEAVECTEDELNNLGHPDNKEQTTDQPLAKDKVALLIGNMNYREHPKLKAPLVDVYELTNLLRQLDFKVVSLLDLTEYEMRNAVDEFLLLLDKGVYGLLYYAGHGYENFGNSFMVPVDAPNPYRSENCLCVQNILKLMQEKETGLNVFLLDMCRKRNDYDDTIPILDALKVTANIVFGYATCQGAEAFEIQHSGLANGIFMKFLKDRLLEDKKITVLLDEVAEDMGKCHLTKGKQALEIRSSLSEKRALTDPIQGTEYSAESLVRNLQWAKAHELPESMCLKFDCGVQIQLGFAAEFSNVMIIYTSIVYKPPEIIMCDAYVTDFPLDLDIDPKDANKGTPEETGSYLVSKDLPKHCLYTRLSSLQKLKEHLVFTVCLSYQYSGLEDTVEDKQEVNVGKPLIAKLDMHRGLGRKTCFQTCLMSNGPYQSSAATSGGAGHYHSLQDPFHGVYHSHPGNPSNVTPADSCHCSRTPDAFISSFAHHASCHFSRSNVPVETTDEIPFSFSDRLRISEK
Which “LRSR-amc cleavage activity of recombinant enzyme (fluorescence)” value does the source give for B1 here?
Its value is “recombinant purified GST-Malt1 protein, oligomerized by binding to glutathione sepharose, was tested for LRSR-amc clavage activity”.
